Measurements taken from the supplement of paper PMC9112550, “Optimization of the antimicrobial peptide Bac7 by deep mutational scanning” (BMC Biology, 2022).

What follows are sequences tested on Escherichia coli TOP10 (assay: shrunken log2 fold change of peptide-encoding DNA abundance (4.5 h post-induction vs induction); higher = less antimicrobial activity (less host growth inhibition)). Conditions: time post-induction: 4.5 h; library: site-saturation at positions 5, 18, 19, 20.
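Also: peptides expressed intracellularly from a pBAD plasmid library in pooled LB shake-flask culture, induced with 0.3% L-arabinose, DNA abundance read by NGS, three biological replicates, DESeq2 with apeglm shrinkage.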

Which “shrunken log2 fold change” value does the source give for RRIRLRPPRLPRPRPRPPTYPRP here?
Its value is -0.304.

How did the “shrunken log2 fold change” value turn out when RRIRKRPPRLPRPRPRPFIPPRP was run?
The value was -0.543.

RRIRGRPPRLPRPRPRPAISPRP was tested. Which “shrunken log2 fold change” value did it give?
The value was 0.296.

How did the “shrunken log2 fold change” value turn out when RRIRHRPPRLPRPRPRPYTCPRP was run?
The value was -0.0278.

For RRIRPRPPRLPRPRPRPSDDPRP, which “shrunken log2 fold change” value is on record?
Its value is -0.0663.

RRIRMRPPRLPRPRPRPWYYPRP was tested. Which “shrunken log2 fold change” value did it give?
Its value is -0.0257.

How did the “shrunken log2 fold change” value turn out when RRIRERPPRLPRPRPRPFGPPRP was run?
The value was -0.146.

RRIRIRPPRLPRPRPRPNDRPRP was tested. Which “shrunken log2 fold change” value did it give?
Its value is -0.0756.

With RRIRQRPPRLPRPRPRPPATPRP as the sequence, how does the “shrunken log2 fold change” value read?
The value was 0.452.

Which “shrunken log2 fold change” value does the source give for RRIRYRPPRLPRPRPRPACYPRP here?
The value was -0.553.

For RRIRDRPPRLPRPRPRPCMLPRP, which “shrunken log2 fold change” value is on record?
The value was 1.36.

Which “shrunken log2 fold change” value does the source give for RRIRPRPPRLPRPRPRPWFVPRP here?
The value was -0.25.

Which “shrunken log2 fold change” value does the source give for RRIRDRPPRLPRPRPRPQPRPRP here?
Its value is 0.458.

With RRIRGRPPRLPRPRPRPIFCPRP as the sequence, how does the “shrunken log2 fold change” value read?
Its value is 0.333.

For RRIRRRPPRLPRPRPRPVNLPRP, which “shrunken log2 fold change” value is on record?
The value was 0.219.

For RRIRDRPPRLPRPRPRPVRCPRP, which “shrunken log2 fold change” value is on record?
The value was 0.339.

RRIRYRPPRLPRPRPRPNCWPRP was tested. Which “shrunken log2 fold change” value did it give?
The value was -0.36.

Which “shrunken log2 fold change” value does the source give for RRIRVRPPRLPRPRPRPDMSPRP here?
Its value is -0.0318.

For RRIRMRPPRLPRPRPRPNVCPRP, which “shrunken log2 fold change” value is on record?
Its value is -0.00865.

For RRIRVRPPRLPRPRPRPRNQPRP, which “shrunken log2 fold change” value is on record?
Its value is 0.0453.

Which “shrunken log2 fold change” value does the source give for RRIRKRPPRLPRPRPRPFMDPRP here?
The value was 0.0834.

For RRIRQRPPRLPRPRPRPCQQPRP, which “shrunken log2 fold change” value is on record?
The value was -0.0108.

RRIRGRPPRLPRPRPRPSDPPRP was tested. Which “shrunken log2 fold change” value did it give?
Its value is 0.261.

How did the “shrunken log2 fold change” value turn out when RRIRMRPPRLPRPRPRPIPHPRP was run?
The value was 0.246.

With RRIRIRPPRLPRPRPRPNPDPRP as the sequence, how does the “shrunken log2 fold change” value read?
Its value is -0.659.

How did the “shrunken log2 fold change” value turn out when RRIRSRPPRLPRPRPRPHFHPRP was run?
The value was -0.428.

For RRIRQRPPRLPRPRPRPCYIPRP, which “shrunken log2 fold change” value is on record?
The value was -0.191.

How did the “shrunken log2 fold change” value turn out when RRIRWRPPRLPRPRPRPHTTPRP was run?
The value was 0.0145.

With RRIRYRPPRLPRPRPRPVHGPRP as the sequence, how does the “shrunken log2 fold change” value read?
The value was -0.014.

With RRIRMRPPRLPRPRPRPPRYPRP as the sequence, how does the “shrunken log2 fold change” value read?
The value was 1.71.

With RRIRWRPPRLPRPRPRPKYDPRP as the sequence, how does the “shrunken log2 fold change” value read?
Its value is -0.449.

For RRIRYRPPRLPRPRPRPDKKPRP, which “shrunken log2 fold change” value is on record?
Its value is -0.0333.

RRIRHRPPRLPRPRPRPYWQPRP was tested. Which “shrunken log2 fold change” value did it give?
The value was -0.0678.

RRIRDRPPRLPRPRPRPMLEPRP was tested. Which “shrunken log2 fold change” value did it give?
The value was 0.358.

For RRIRVRPPRLPRPRPRPLHSPRP, which “shrunken log2 fold change” value is on record?
The value was -0.0269.

RRIRNRPPRLPRPRPRPTNKPRP was tested. Which “shrunken log2 fold change” value did it give?
The value was -0.468.

RRIRERPPRLPRPRPRPCLAPRP was tested. Which “shrunken log2 fold change” value did it give?
The value was -0.526.

RRIRTRPPRLPRPRPRPIKTPRP was tested. Which “shrunken log2 fold change” value did it give?
Its value is -0.0452.

How did the “shrunken log2 fold change” value turn out when RRIRGRPPRLPRPRPRPEPKPRP was run?
Its value is 0.45.

For RRIRKRPPRLPRPRPRPAGDPRP, which “shrunken log2 fold change” value is on record?
The value was 0.646.

How did the “shrunken log2 fold change” value turn out when RRIRDRPPRLPRPRPRPTSVPRP was run?
Its value is -0.0218.

RRIRARPPRLPRPRPRPCFYPRP was tested. Which “shrunken log2 fold change” value did it give?
The value was -0.218.

RRIRVRPPRLPRPRPRPNLDPRP was tested. Which “shrunken log2 fold change” value did it give?
Its value is -0.0165.

With RRIRNRPPRLPRPRPRPLPYPRP as the sequence, how does the “shrunken log2 fold change” value read?
Its value is -0.542.

RRIRLRPPRLPRPRPRPDDGPRP was tested. Which “shrunken log2 fold change” value did it give?
The value was -0.00277.

For RRIRERPPRLPRPRPRPPYYPRP, which “shrunken log2 fold change” value is on record?
Its value is -0.433.

For RRIRVRPPRLPRPRPRPMMHPRP, which “shrunken log2 fold change” value is on record?
The value was -0.365.

Which “shrunken log2 fold change” value does the source give for RRIRKRPPRLPRPRPRPITYPRP here?
The value was -0.193.

RRIRIRPPRLPRPRPRPCGFPRP was tested. Which “shrunken log2 fold change” value did it give?
Its value is -0.0835.

Which “shrunken log2 fold change” value does the source give for RRIRCRPPRLPRPRPRPIYAPRP here?
Its value is -0.281.

How did the “shrunken log2 fold change” value turn out when RRIRNRPPRLPRPRPRPTGDPRP was run?
The value was 0.258.

How did the “shrunken log2 fold change” value turn out when RRIRNRPPRLPRPRPRPDRNPRP was run?
The value was -0.0291.

Which “shrunken log2 fold change” value does the source give for RRIRMRPPRLPRPRPRPSNNPRP here?
The value was -0.0389.

With RRIRFRPPRLPRPRPRPETFPRP as the sequence, how does the “shrunken log2 fold change” value read?
The value was -0.0396.

RRIRTRPPRLPRPRPRPWFDPRP was tested. Which “shrunken log2 fold change” value did it give?
The value was -0.247.

For RRIRCRPPRLPRPRPRPQRFPRP, which “shrunken log2 fold change” value is on record?
The value was -0.0259.

How did the “shrunken log2 fold change” value turn out when RRIRTRPPRLPRPRPRPKFWPRP was run?
Its value is 0.318.

How did the “shrunken log2 fold change” value turn out when RRIRNRPPRLPRPRPRPQPTPRP was run?
The value was 0.0158.

Which “shrunken log2 fold change” value does the source give for RRIRWRPPRLPRPRPRPSFCPRP here?
Its value is -0.136.

For RRIRCRPPRLPRPRPRPFLPPRP, which “shrunken log2 fold change” value is on record?
The value was -0.265.

How did the “shrunken log2 fold change” value turn out when RRIRRRPPRLPRPRPRPEIQPRP was run?
Its value is 0.0536.

How did the “shrunken log2 fold change” value turn out when RRIRVRPPRLPRPRPRPNDRPRP was run?
Its value is -0.0172.

Which “shrunken log2 fold change” value does the source give for RRIRDRPPRLPRPRPRPYGEPRP here?
The value was -0.31.

For RRIRMRPPRLPRPRPRPMDEPRP, which “shrunken log2 fold change” value is on record?
Its value is 2.34.

How did the “shrunken log2 fold change” value turn out when RRIRIRPPRLPRPRPRPIHWPRP was run?
Its value is -0.0782.

How did the “shrunken log2 fold change” value turn out when RRIRMRPPRLPRPRPRPKLMPRP was run?
Its value is 0.718.

RRIRRRPPRLPRPRPRPCEIPRP was tested. Which “shrunken log2 fold change” value did it give?
The value was 0.0684.

With RRIRPRPPRLPRPRPRPFRPPRP as the sequence, how does the “shrunken log2 fold change” value read?
Its value is -0.0197.

With RRIRTRPPRLPRPRPRPTMVPRP as the sequence, how does the “shrunken log2 fold change” value read?
Its value is -0.0941.

RRIRKRPPRLPRPRPRPTHNPRP was tested. Which “shrunken log2 fold change” value did it give?
The value was 0.299.

Which “shrunken log2 fold change” value does the source give for RRIRWRPPRLPRPRPRPGPFPRP here?
Its value is 0.125.

With RRIRCRPPRLPRPRPRPWSPPRP as the sequence, how does the “shrunken log2 fold change” value read?
Its value is -0.0395.

How did the “shrunken log2 fold change” value turn out when RRIRHRPPRLPRPRPRPTNGPRP was run?
The value was -0.154.

Which “shrunken log2 fold change” value does the source give for RRIRTRPPRLPRPRPRPIHVPRP here?
Its value is 0.00961.

With RRIRVRPPRLPRPRPRPAFCPRP as the sequence, how does the “shrunken log2 fold change” value read?
The value was 0.185.

How did the “shrunken log2 fold change” value turn out when RRIRSRPPRLPRPRPRPDGLPRP was run?
The value was 0.0397.

Which “shrunken log2 fold change” value does the source give for RRIRWRPPRLPRPRPRPVVCPRP here?
The value was 0.301.

How did the “shrunken log2 fold change” value turn out when RRIRMRPPRLPRPRPRPCEHPRP was run?
The value was 0.249.

Which “shrunken log2 fold change” value does the source give for RRIRARPPRLPRPRPRPTCTPRP here?
The value was 0.764.

With RRIRLRPPRLPRPRPRPYMPPRP as the sequence, how does the “shrunken log2 fold change” value read?
The value was -0.509.

With RRIRIRPPRLPRPRPRPFGIPRP as the sequence, how does the “shrunken log2 fold change” value read?
The value was -0.972.

How did the “shrunken log2 fold change” value turn out when RRIRVRPPRLPRPRPRPQPEPRP was run?
The value was 0.23.

With RRIRVRPPRLPRPRPRPWMWPRP as the sequence, how does the “shrunken log2 fold change” value read?
Its value is 0.091.

RRIRKRPPRLPRPRPRPSIAPRP was tested. Which “shrunken log2 fold change” value did it give?
Its value is 0.00111.

How did the “shrunken log2 fold change” value turn out when RRIRYRPPRLPRPRPRPQYYPRP was run?
The value was -1.52.

How did the “shrunken log2 fold change” value turn out when RRIRARPPRLPRPRPRPENYPRP was run?
Its value is 0.0453.

With RRIRNRPPRLPRPRPRPFKYPRP as the sequence, how does the “shrunken log2 fold change” value read?
The value was -0.133.

How did the “shrunken log2 fold change” value turn out when RRIRKRPPRLPRPRPRPLRWPRP was run?
Its value is 1.37.

RRIRHRPPRLPRPRPRPMHHPRP was tested. Which “shrunken log2 fold change” value did it give?
The value was -0.154.

Which “shrunken log2 fold change” value does the source give for RRIRPRPPRLPRPRPRPCVNPRP here?
The value was -0.0713.

How did the “shrunken log2 fold change” value turn out when RRIRMRPPRLPRPRPRPVYLPRP was run?
Its value is -0.683.

Which “shrunken log2 fold change” value does the source give for RRIRFRPPRLPRPRPRPSPKPRP here?
Its value is 0.188.

How did the “shrunken log2 fold change” value turn out when RRIRERPPRLPRPRPRPTQVPRP was run?
Its value is -0.0607.

For RRIRDRPPRLPRPRPRPSKCPRP, which “shrunken log2 fold change” value is on record?
Its value is -0.317.

For RRIRMRPPRLPRPRPRPVAYPRP, which “shrunken log2 fold change” value is on record?
Its value is 0.214.

How did the “shrunken log2 fold change” value turn out when RRIRCRPPRLPRPRPRPPVGPRP was run?
Its value is 0.414.

How did the “shrunken log2 fold change” value turn out when RRIRGRPPRLPRPRPRPKMFPRP was run?
The value was 0.065.

Which “shrunken log2 fold change” value does the source give for RRIRQRPPRLPRPRPRPVVEPRP here?
Its value is 0.0249.

How did the “shrunken log2 fold change” value turn out when RRIRNRPPRLPRPRPRPNTSPRP was run?
The value was -0.0898.

For RRIRHRPPRLPRPRPRPHNHPRP, which “shrunken log2 fold change” value is on record?
Its value is -0.577.

RRIRARPPRLPRPRPRPGEQPRP was tested. Which “shrunken log2 fold change” value did it give?
Its value is 0.135.

With RRIRERPPRLPRPRPRPPFEPRP as the sequence, how does the “shrunken log2 fold change” value read?
The value was 0.363.

Which “shrunken log2 fold change” value does the source give for RRIRGRPPRLPRPRPRPEITPRP here?
Its value is 0.542.

With RRIRERPPRLPRPRPRPHHWPRP as the sequence, how does the “shrunken log2 fold change” value read?
The value was -0.315.

For RRIRNRPPRLPRPRPRPLCEPRP, which “shrunken log2 fold change” value is on record?
The value was -0.107.

RRIRIRPPRLPRPRPRPQAYPRP was tested. Which “shrunken log2 fold change” value did it give?
Its value is 0.0364.

How did the “shrunken log2 fold change” value turn out when RRIRYRPPRLPRPRPRPKKYPRP was run?
Its value is -0.86.

How did the “shrunken log2 fold change” value turn out when RRIRIRPPRLPRPRPRPVTCPRP was run?
Its value is -0.255.

With RRIRARPPRLPRPRPRPLFEPRP as the sequence, how does the “shrunken log2 fold change” value read?
Its value is 0.629.
